Assay results from the supplement of paper PMC9170038.

Test system: MS2 coat protein
Assay: apparent KD of MS2 coat protein; designed switch direction (-1 OFF switch, 1 ON switch): -1; higher = weaker reporter binding
How it was run: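 RNA switches sharing common flanks were transcribed by stalled E. coli RNA polymerase on Illumina chips. A doubling series of SNAP-549-labelled MS2 coat protein, from 0.7 or 1.5 nM to 3 µM, was applied in Tris-HCl pH 7.5 buffer with KCl, MgCl2, BSA, DTT, tRNA and Tween-20. Each step lasted 0.8–1.5 h at the bottom of the series and 10–20 min at the top. Normalised cluster fluorescence was curve-fitted, giving apparent KD as the per-design median over clusters.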

[1] = Eterna round: R95, input ligand: microRNA oligo, concentration not stated
[2] = input ligand: microRNA oligo, concentration not stated
[3] = Eterna round: R95, input ligand: FMN 200 uM
[4] = Eterna round: R95, input ligand: none

Sequence | apparent KD of MS2 coat protein [1] | apparent KD of MS2 coat protein (input ligand: FMN 200 uM) | apparent KD of MS2 coat protein (input ligand: none) | also measured
UGUGCGUAUGUGAGGAUAUGCUGGUCCUUGGCUCGGCAGAAGGCACAUGAGGAUCACCCAUGUGGUGUCGUACA [salish99_Bmod_ex4_071] (puzzle: Brourd's mod of Exclusion 4) | 158 nM | – | – | –
CCAGCGCGUGUGAGGAUAUGCUGGUCCUUGGAUCAGCAGAAGGCACAUGAGGAUCACCCAUGUGAGUGCGUUGG [JL bmx4 3.35] (puzzle: Brourd's mod of Exclusion 4) | 16.2 nM | – | – | –
AUAUUGUGAGGAUAUGAACUUAGUAACGAAAGAUACUAAGUUCAGAAGGCACAUGAGGAUCACCCAUGUUUCUC [Long static hairpin v11] (Eterna round: R97, puzzle: Exclusion 4) | – | 596 nM | 68.1 nM | –
CUCGGACAUGAGGAUCACCCAUGUGAGGAUAUGAUGCGAUCGUCGAAAGACGAUAGCAUCAGAAGGUACAAAUG [Fiskers Ex 1 - 22] (puzzle: Exclusion 1) | 55.6 nM | – | – | –
UAUCAUCAUGUAGGAUAUGCGUGGCAAAGCUAUGCAGAAGGACAUGAGGAUCACCCAUGUUCUAGCGUCUGAGUACAGAUGCUA [Mat - Exclusion NG 1 - Mod of JL - D75] (Eterna round: R96, puzzle: Exclusion NG 1) | – | 278 nM | 83.7 nM | apparent KD of MS2 coat protein [2]: 66.4 nM
CUUGUUUAUGUGAGGAUAUACUGUUAGUAUAGUUUGUAGAAGGUACAUGAGGAUCACCCAUGUUUAUUACUCUU [JR_BME4_Sub046] (puzzle: Brourd's mod of Exclusion 4) | 11.9 nM | – | – | –
GUUAUGUCAGGAUAUGCUAAUGAUGAGUGAUCAGACAUGAUGUAGAAGGGACAUGAGGAUCACCCAUGUAAUAU [EX4 #8] (Eterna round: R97, puzzle: Exclusion 4) | – | 114 nM | 122 nM | –
UUUCUUGGGCAAGGAUAUCCUGUGCGGUUCCGGCUCGUGUCUGUCACAUGAGGAUCACCCAUGUGGGAGAAGGUGCCUGCGGUU [Design 83] (Eterna round: R96, puzzle: Exclusion NG 2) | – | 15.4 nM | 15.6 nM | apparent KD of MS2 coat protein [2]: 10.7 nM
AGAUGUAGAUACCGAUCCUACAUGAGGAUCACCCAUGUAGCUAGACGUGCACGCGUAGCUCGUCAGACUACCAGAAG [salish99_TOv1_r3_085] (puzzle: Sensor v3, turn-off variant 1) | 147 nM | – | – | apparent KD of MS2 coat protein [3]: 292 nM; apparent KD of MS2 coat protein [4]: 223 nM
UUUUACAUGCUGAGAUCCUACAUGAGGAUCACCCAUGUGGUCCGGUGACUUUUGUCACCGGAUUUUGCUCGUCUUGU [salish99_S_TOV1_R5_101] (Eterna round: R97, puzzle: Sensor, turn-off variant 1) | – | 84.8 nM | 108 nM | –
ACUGGUCGAGGAUAUACAUGAGGAUCACCCAUGUAGAUCAACCAGCGAUAGCUGGAAUGUAGAAGGCGACCAGU [E3/5-A2] (Eterna round: R97, puzzle: Exclusion 3) | – | 191 nM | 24.6 nM | –
UAUUUAAUUAACAAGCUUUACAUGAGGAUCACCCAUGUGAUCAUGCUCGUCUUAUAAUUAAUUAAUUAAUUAAUUAA [Stov1/6-A2] (Eterna round: R97, puzzle: Sensor, turn-off variant 1) | – | 51.6 nM | 62.8 nM | –
AUACUUGCGAAGGAUAUGUAUCAAAGGAACGAAACAGAAGGUUGAACAUGAGGAUCACCCAUGUGUUCCUCGGA [Eternabot (Original) Solution 40] (Eterna round: R97, puzzle: Exclusion 6) | – | 272 nM | 235 nM | –
AGGUAACAUGAGGAUCACCCAUGUCAGGAUAUCAUGAAGAGUAGAUUAGAGGAGAGGUUGAGAAGGGACUAUAU [Excluse me! 15 - Jieux - Exclusion 1] (puzzle: Exclusion 1) | 38.5 nM | – | – | –
AGUUGGCGAGGAUAUACAUGAGGAUCACCCAUGUGAAAGAGAAGAGUGAGGAAGAAAAGUAGAAGGCGCUGACA [Mat - Exclusion 3 - Mod of Salish D39] (puzzle: Exclusion 3) | 69.3 nM | – | – | apparent KD of MS2 coat protein [3]: 135 nM; apparent KD of MS2 coat protein [4]: 75.2 nM
AGUUAUUCAGGAUAUGGUGUGUUAUACAUGAGGAUCACCCAUGUGGGUCCUGGUUUGGCCUCAGAAGGGAAUGUUA [salish99_ex5_r4_123] (Eterna round: R97, puzzle: Exclusion 5) | – | 507 nM | 600 nM | –
GGUGCGAGUGUGAGGAUAUGCUGGUCGUAAGAUCAGCAGAAGGCACAUGAGGAUCACCCAUGUGAAAACGUACC [Mat - Exclusion 4 - JL Mod - D75] (puzzle: Brourd's mod of Exclusion 4) | 18.8 nM | – | – | –
AAACCAAUAGUCAGGAUAUCUUAGUCGCGGAUGUGGGAGAAGGGACAUGAGGAUCACCCAUGUGGGAGUAUGUG [Eternabot (L1) Solution 19] (Eterna round: R97, puzzle: Brourd's mod of Exclusion 4) | – | 116 nM | 122 nM | –
UCACGGGACUAAGGAUAUAUGAGAGCCAUUAACAUAGAAGGUAGAAUGUUAGAUCAUAAACUAAACAUGAGGAUCACCCAUGUU [JR_ExcNG1_Sub093] (Eterna round: R96, puzzle: Exclusion NG 1) | – | 19.6 nM | 23.2 nM | apparent KD of MS2 coat protein [2]: 20.2 nM
AGAGCCGUUGUAGGAUAUGCCCUCGGGUGAUGCCGGUCGCCACAUGAGGAUCACCCAUGUAGCGGGCAGAAGGGCAAACUCAGU [Eternabot solution 43] (Eterna round: R96, puzzle: Exclusion NG 2) | – | 26.6 nM | 18.5 nM | apparent KD of MS2 coat protein [2]: 13.4 nM
CCAUGUCCAGAGGAUAUGUAGCGGAUAAACGCAACAGAAGGCUGGACAUGAGGAUCACCCAUGUGCGCCUUCCA [Letion] (Eterna round: R97, puzzle: Exclusion 6) | – | 35.7 nM | 106 nM | –
AAUUAUUUUUGAGGAUAUGGUGGUGAAACACCACCAGAAGGCGAAAUAAACAUGAGGAUCACCCAUGUGAGCCUGAUGCUUAUG [Ex NG1 #48] (Eterna round: R96, puzzle: Exclusion NG 1) | – | – | – | apparent KD of MS2 coat protein [2]: 19.9 nM
CCUCUACAUGAGGAUCACCCAUGUGAGGAUAUCUCGGAGCAGCCACUUAAGGCACUCCAGAGAAGGCACGUGUA [Oreresbe] (puzzle: Exclusion 1) | 16.6 nM | – | – | –
UAUGGUUAAGUCAGGAUAUGCUCAUAGAGGUCUAUGCAGAAGGGACAUGAGGAUCACCCAUGUAUGGUCGUGUU [Ex4 #64] (Eterna round: R97, puzzle: Brourd's mod of Exclusion 4) | – | 84.6 nM | 53.6 nM | –
UAGGAGUCAGGAUAUGCGAGAGAUUGAAGUAUGGGAUGUGAGCAGAAGGGACAUGAGGAUCACCCAUGUAUGGA [JR_Exclu4_Sub093] (puzzle: Exclusion 4) | 146 nM | – | – | –
CGAUAGAUAGGAUAUACAUGAGGAUCACCCAUGUGAACGGGUAGAUUUGUCAACUGAAGUAGAAGGAUCGUCGC [Eternabot (L2) Solution 64] (Eterna round: R97, puzzle: Exclusion 3) | – | 132 nM | 761 nM | –
